Experimental findings from PMC5727398, “Nucleotide– and Mal3-dependent changes in fission yeast microtubules suggest a structural plasticity view of dynamics” (Nature Communications, 2017) are described below.

B2: S. pombe α-tubulin1 (in the microtubule lattice) (natural protein, UniProt P04688 1-455, looked up)
chain: MREVISVHVGQAGVQIGNACWELYCLEHGIGPDGFPTENSEVHKNNSYLNDGFGTFFSETGQGKFVPRSIYVDLEPNVIDQVRTGPYKDLFHPEQMVTGKEDASNNYARGHYTVGKEMIDSVLERIRRMADNCSGLQGFLVFHSFGGGTGSGLGALLLERLNMEYGKKSNLQFSVYPAPQVSTSVVEPYNSVLTTHATLDNSDCTFMVDNEACYDICRRNLDIERPTYENLNRLIAQVVSSITASLRFAGSLNVDLNEFQTNLVPYPRIHFPLVTYSPIVSAAKAFHESNSVQEITNQCFEPYNQMVKCDPRTGRYMATCLLYRGDVIPRDVQAAVTSIKSRRTIQFVDWCPTGFKIGICYEPPQHVPGSGIAKVNRAVCMLSNTTSIAEAWSRLDHKFDLMYSKRAFVHWYVGEGMEEGEFSEAREDLAALERDYEEVGQDSMDNEMYEADEEY
notes: S. pombe alpha-tubulin1, native, untagged; the sample was a wild-type mixture of alpha-tubulin1 and alpha-tubulin2, the model and the residue numbers are those of alpha-tubulin1; Subunit of m2, written alone for the contacts seen in the structure; also called Sp_α-tubulin1; Sp_α-tub; source: purified from S. pombe as tag-free endogenous tubulin (dual isoform), polymerized in vitro

For data set [1], the target named is T1, dynamic microtubules polymerized from unlabeled single-isoform S. pombe tubulin (S. pombe, UniProt P04688 1-455; P05219 1-448).
T1 construct: S. pombe alpha-tubulin1, untagged; S. pombe beta-tubulin, untagged; Polymer of alpha-beta heterodimers, grown with 1 mM GTP from Alexa-488-labeled GMPCPP-stabilized pig brain MT seeds
Description: TIRF microscopy; dynamic unlabeled MTs grown from antibody-immobilized GMPCPP pig brain MT seeds; GFP-labelled EB protein in solution; PEM100 pH 6.9 plus 1 mM GTP, with additional KCl (55, 75, 85 mM) in some experiments; 4.5 or 14 uM Sp_tub, 25 uM pig brain tubulin. The note with it: both partners purified.

Data set [2] concerns the molecule itself. Description: cryo-EM structure; 20 or 30 uM dual-isoform Sp_tub polymerized with 5 mM GTP and 25 uM Mal3-143 at 32 °C in PEM mixed 1:1 with MES buffer; 13 uM MTs incubated with 60 uM Mal3 before freezing; 13-PF (13_3) MTs, single-particle averaging, 4.6 Å, no kinesin motor domain.
In data set [3] the target is B2. The data set is described as above. The following applies: both partners purified.

T1 sequence (P05219 whole entry, canonical isoform, one chain of several): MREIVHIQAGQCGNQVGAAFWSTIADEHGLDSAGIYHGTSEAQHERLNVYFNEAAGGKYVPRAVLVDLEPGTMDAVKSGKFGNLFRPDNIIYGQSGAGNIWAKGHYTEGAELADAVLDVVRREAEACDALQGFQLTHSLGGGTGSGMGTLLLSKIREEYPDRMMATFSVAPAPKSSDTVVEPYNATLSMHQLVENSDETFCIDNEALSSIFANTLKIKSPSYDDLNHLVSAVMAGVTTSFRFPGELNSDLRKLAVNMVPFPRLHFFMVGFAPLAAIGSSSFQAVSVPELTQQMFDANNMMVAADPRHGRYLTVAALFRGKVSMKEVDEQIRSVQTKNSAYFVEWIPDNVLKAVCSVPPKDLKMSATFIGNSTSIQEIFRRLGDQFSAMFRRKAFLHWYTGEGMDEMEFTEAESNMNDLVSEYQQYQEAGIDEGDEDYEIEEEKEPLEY

B1: full-length Mal3-GFP (natural protein, S. pombe, UniProt Q10113 1-308, looked up)
chain: MSESRQELLAWINQVTSLGLTRIEDCGKGYAMIQIFDSIYQDIPLKKVNFECNNEYQYINNWKVLQQVFLKKGIDKVVDPERLSRCKMQDNLEFVQWAKRFWDQYYPGGDYDALARRGNRGPANTRVMNSSAGATGPSRRRQVSSGSSTPSMTKSSANNNNVSSTANTAAVLRAKQAQQQITSLETQLYEVNETMFGLERERDFYFNKLREIEILVQTHLTTSPMSMENMLERIQAILYSTEDGFELPPDQPADLTTALTDHDTNNVAEEAQMTDLKDSETQRVPSAPDFVHARLQSLEVDDDENITF
notes: Mal3, the S. pombe EB protein, full length; His tag removed by TEV protease cleavage; also called dimeric Mal3; not shown: e-GFP, C-terminal, kept
On to B1, for which, in data set [1], the binding result is “binds”. For B2, in data set [2], the binding result is “binds”.

B3: monomeric Mal3 (1-143, Mal3-143) (domain or fragment, S. pombe, UniProt Q10113 1-143, looked up)
chain: MSESRQELLAWINQVTSLGLTRIEDCGKGYAMIQIFDSIYQDIPLKKVNFECNNEYQYINNWKVLQQVFLKKGIDKVVDPERLSRCKMQDNLEFVQWAKRFWDQYYPGGDYDALARRGNRGPANTRVMNSSAGATGPSRRRQV
notes: also called Mal3 CH domain
As for B3, in data set [3], the binding result is listed as “binds”.
